# Data taken from article PMC2950906 (Nature structural & molecular biology, 2010).
# B1: V. cholerae GspD secretin (VcGspD), full-length recombinant channel (natural protein)
# chain: NEFSASFKGTDIQEFINIVGRNLEKTIIVDPSVRGKVDVRSFDTLNEEQYYSFFLSVLEVYGFAVVEMDNGVLKVIKSKDAKTSAIPVLSGEERANGDEVITQVVAVKNVSVRELSPLLRQLIDNAGAGNVVHYDPANIILITGRAAVVNRLAEIIRRVDQAGDKEIEVVELNNASAAEMVRIVEALNKTTDAQNTPEFLKPKFVADERTNSILISGDPKVRERLKRLIKQLDVEMAAKGNNRVVYLKYAKAEDLVEVLKGVSENLQAEKGTGQPTTSKRNEVMIAAHADTNSLVLTAPQDIMNAMLEVIGQLDIRRAQVLIEALIVEMAEGDGINLGVQWGSLESGSVIQYGNTGASIGNVMIGLEEAKDTTQTKAVYDTNNNFLRNETTTTKGDYTKLASALSSIQGAAVSIAMGDWTALINAVSNDSSSNILSSPSITVMDNGEASFIVGEEVPVITGSTAGSNNDNPFQTVDRKEVGIKLKVVPQINEGNSVQLNIEQEVSNVLGANGAVDVRFAKRQLNTSVMVQDGQMLVLGGLIDERALESESKVPLLGDIPLLGQLFRSTSSQVEKKNLMVFIKPTIIRDGVTADGITQRKYNYIRAEQLFRAEKGLRLLDDASVPVLPKFGDDRRHSPEIQAFIEQMEAKQ
# Key:
# [1] = biological target: EcGspD fragment 1-237 (peri-GspD), N0-N1-N2 subdomains of the secretin from enterotoxigenic E. coli (enterotoxigenic E. coli); assay: SPR
# cryo-EM structure = biological target: the molecule itself; assay: cryo-EM structure
molecule,measurement,setting,value
B-pentamer of heat-labile enterotoxin (LTB5) (from UniProt P32890 22-124) (complex),Kd,[1],15.5 µM
B1,stoichiometry N,cryo-EM structure,12
